Experimental data reported in patent publication US20100119520A1 (US Dept. of Health and Human Services, published 2010).

Tests used:
[1] = target: T1, anthrax lethal factor (LF) (Bacillus anthracis, UniProt P15917 34-809); assay: cell-based or functional assay
T1 sequence: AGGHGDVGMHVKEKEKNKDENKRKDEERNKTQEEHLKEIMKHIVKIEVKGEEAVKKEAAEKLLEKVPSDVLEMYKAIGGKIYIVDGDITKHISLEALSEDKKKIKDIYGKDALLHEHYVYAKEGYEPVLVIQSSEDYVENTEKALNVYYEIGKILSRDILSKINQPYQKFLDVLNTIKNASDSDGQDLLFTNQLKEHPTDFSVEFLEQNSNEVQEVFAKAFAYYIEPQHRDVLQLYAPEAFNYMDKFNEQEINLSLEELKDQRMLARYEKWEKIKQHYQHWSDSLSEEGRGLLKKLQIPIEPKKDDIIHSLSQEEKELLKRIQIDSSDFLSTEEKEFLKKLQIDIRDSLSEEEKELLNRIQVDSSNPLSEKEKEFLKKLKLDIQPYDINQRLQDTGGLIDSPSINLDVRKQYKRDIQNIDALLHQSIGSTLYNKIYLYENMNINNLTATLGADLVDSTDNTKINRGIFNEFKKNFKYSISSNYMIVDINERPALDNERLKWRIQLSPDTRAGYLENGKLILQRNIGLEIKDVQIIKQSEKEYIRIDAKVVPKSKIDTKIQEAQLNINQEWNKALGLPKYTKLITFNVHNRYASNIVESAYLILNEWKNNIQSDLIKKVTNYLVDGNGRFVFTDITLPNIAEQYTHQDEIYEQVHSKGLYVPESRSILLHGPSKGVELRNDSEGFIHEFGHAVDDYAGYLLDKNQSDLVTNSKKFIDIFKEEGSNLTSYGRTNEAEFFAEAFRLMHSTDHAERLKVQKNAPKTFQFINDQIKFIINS

[2] = target: T2, bovine serum albumin (bovine, UniProt P02769 25-607); assay: ELISA, protein coated at 10 ug/ml
T2 construct: also called BSA
T2 sequence (P02769 25-607 limits assumed): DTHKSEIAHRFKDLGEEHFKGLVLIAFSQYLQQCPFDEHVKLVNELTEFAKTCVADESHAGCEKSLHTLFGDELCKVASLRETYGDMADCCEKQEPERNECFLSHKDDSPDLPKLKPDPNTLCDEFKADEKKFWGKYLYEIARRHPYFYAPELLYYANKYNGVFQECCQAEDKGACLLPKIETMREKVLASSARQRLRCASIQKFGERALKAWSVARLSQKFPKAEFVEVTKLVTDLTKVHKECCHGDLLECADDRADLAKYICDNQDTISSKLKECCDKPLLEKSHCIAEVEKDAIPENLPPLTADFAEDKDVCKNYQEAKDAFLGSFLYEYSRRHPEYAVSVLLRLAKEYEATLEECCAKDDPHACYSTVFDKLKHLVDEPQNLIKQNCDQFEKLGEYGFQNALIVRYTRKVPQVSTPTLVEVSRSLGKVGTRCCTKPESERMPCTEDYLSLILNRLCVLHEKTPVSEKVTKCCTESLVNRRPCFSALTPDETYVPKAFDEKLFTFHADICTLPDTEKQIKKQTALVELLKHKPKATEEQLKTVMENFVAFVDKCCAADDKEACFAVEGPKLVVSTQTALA

[3] = target: lysozyme (Gallus gallus (Chicken), UniProt P00698 19-147); assay: ELISA, protein coated at 10 ug/ml
Sequence of lysozyme (P00698 19-147 limits assumed): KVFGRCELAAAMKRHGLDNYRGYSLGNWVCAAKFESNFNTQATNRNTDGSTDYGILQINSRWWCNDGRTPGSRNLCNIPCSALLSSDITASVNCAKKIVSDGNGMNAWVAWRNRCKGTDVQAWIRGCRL

[4] = target: anthrax protective antigen (PA), purified (Bacillus anthracis, UniProt P13423 30-764); assay: Western blot of purified toxin proteins; PA as negative control
Sequence of anthrax protective antigen (PA), purified (P13423 30-764 limits assumed): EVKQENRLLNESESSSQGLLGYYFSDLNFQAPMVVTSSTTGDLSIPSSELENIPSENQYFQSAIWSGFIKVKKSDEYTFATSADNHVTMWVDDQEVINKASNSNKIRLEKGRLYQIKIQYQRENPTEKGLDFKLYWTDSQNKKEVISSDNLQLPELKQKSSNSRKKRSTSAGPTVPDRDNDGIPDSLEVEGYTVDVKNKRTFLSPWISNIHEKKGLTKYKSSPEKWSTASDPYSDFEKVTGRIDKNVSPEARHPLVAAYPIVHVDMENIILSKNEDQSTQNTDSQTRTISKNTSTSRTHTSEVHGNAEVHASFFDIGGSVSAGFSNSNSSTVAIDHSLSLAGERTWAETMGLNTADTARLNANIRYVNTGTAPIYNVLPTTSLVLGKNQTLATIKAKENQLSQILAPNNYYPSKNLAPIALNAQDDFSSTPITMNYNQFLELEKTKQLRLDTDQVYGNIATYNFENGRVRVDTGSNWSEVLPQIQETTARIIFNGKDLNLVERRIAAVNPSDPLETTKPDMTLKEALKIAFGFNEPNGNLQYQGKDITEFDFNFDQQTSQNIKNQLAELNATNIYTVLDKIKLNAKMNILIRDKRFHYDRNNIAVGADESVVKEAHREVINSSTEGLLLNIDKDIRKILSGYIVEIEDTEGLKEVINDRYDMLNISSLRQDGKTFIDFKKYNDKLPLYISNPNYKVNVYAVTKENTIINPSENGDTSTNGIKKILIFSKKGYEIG

[5] = target: T3, anthrax edema factor (EF) (Bacillus anthracis, UniProt P40136 34-800); assay: Western blot of purified toxin proteins (SDS-PAGE) probed with the mAb
T3 sequence: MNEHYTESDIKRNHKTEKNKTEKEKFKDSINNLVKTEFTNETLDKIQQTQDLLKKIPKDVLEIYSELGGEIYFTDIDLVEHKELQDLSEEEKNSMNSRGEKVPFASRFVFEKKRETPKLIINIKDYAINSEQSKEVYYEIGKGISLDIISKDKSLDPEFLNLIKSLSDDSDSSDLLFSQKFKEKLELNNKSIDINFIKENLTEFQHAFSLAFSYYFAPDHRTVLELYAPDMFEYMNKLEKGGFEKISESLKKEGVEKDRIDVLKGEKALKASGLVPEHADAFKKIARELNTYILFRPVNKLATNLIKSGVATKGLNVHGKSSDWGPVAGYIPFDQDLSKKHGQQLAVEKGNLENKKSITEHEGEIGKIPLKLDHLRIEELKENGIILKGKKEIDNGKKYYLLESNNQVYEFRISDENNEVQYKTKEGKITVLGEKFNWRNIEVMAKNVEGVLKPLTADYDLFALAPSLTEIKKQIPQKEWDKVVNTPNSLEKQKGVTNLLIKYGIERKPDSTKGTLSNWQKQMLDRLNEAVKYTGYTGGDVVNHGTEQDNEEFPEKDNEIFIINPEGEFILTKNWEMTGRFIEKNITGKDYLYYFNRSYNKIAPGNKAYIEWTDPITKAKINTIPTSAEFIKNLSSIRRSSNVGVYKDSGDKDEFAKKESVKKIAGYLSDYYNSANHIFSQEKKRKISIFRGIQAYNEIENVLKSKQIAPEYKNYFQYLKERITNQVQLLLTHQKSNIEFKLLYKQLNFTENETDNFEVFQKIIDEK

[6] = target: T1, anthrax lethal factor (LF); assay: SPR (BIAcore 3000), LF immobilized on CM3 chip, Fab injected
[7] = target: T3, anthrax edema factor (EF); assay: ELISA, EF coated at 5 ug/ml
[8] = target: T3, anthrax edema factor (EF); assay: cell-based or functional assay
[9] = target: T3, anthrax edema factor (EF); assay: SPR (BIAcore), IgG immobilized on CM5 chip, recombinant EF injected, 1:1 model
[10] = target: T1, anthrax lethal factor (LF); assay: ELISA, LF coated at 5 ug/ml
[11] = target: T3, anthrax edema factor (EF); assay: Western blot of purified toxin proteins (SDS-PAGE) probed with the mAb; remark: listed apart in the source
[12] = target: T3, anthrax edema factor (EF)

B1: anti-anthrax LF10E monoclonal antibody (IgG) (antibody, V domains shown)
VH: EVQLLESGGGLVKPGGSLRLTCAASGFTFSSYAMHWVRQAPEKGLEWVSSISGSGGGTWYADSVKGRFTISRDNSRNTLYLQLNSLRAEDTAVYYCARPKYTGYENPFDYWGQGTLVTVS
VL: ELQMTQSPSSLSASVGDRVTITCRASQDIRNYLAWYQQEPGKAPRLLIYYASKLQSGVPSRFSGRGSGTDYSLTISSLQPEDFATYYCQQYDSVPLTFGGGTKMEIKR
EC50 of neutralization of LT toxicity, RAW264.7 macrophage viability (MTT) [1]: 0.0156 mg/L
binding result [2]: no binding
binding result [3]: no binding
binding result [4]: no binding
binding result [5]: no binding

B2: anti-anthrax LF10E Fab (Fab, V domains shown)
VH: B1 VH
VL: B1 VL
Kd [6]: 0.69 nM
koff [6]: 0.00019 s⁻¹
kon [6]: 270000 M⁻¹ s⁻¹

B3: anti-EF clone EF15A (antibody, V domains shown)
VH: VQLLEESGGGVVQPGRSLRLSCTASGFTFSNYGMQWVRQAPGKRLEWVAFISYSGSNKQYADSVRGRFTISRDNSKNILYLQMNSLRSEDTAVYYCARDSHYLDYLPDAFDYWGQGTVVTVS
VL: ELVMTQSPSLLSASVGDRVTITCRASQGISNYLAWFQQKPGKAPKRLIFTAYRLESGVPSRFSGSMSGTEFTLTISSLEPEDFATYYCLQHSAYPPTFGQGTKLEIKR
binding result [7]: binds
binding result [2]: no binding
binding result [3]: no binding

B4: anti-anthrax EF13D monoclonal antibody (IgG) (antibody, V domains shown)
VH: EVQLLESGAEVKKPGSSVKVSCKVSGGTFSSFGISWVRQAPGQGLEWMGLIIPILGTANYAQKFQGRLTITADESTSTVYMELSSLRSEDTAVYYCATDPYHNWGEWDLDYWGQGTLVTVS
VL: AAELTQSPSSLSASVGDRVSITCRASQSISNYLSWYQQKPGKAPQLLIYDASTLQSGVPSRFSGSGSGTDFTLTISSLQPEDFATYYCQCGYGTYPTFGGGTQVEIKR
EC50 of inhibition of ET-mediated cAMP production in RAW264.7 cells [8]: 0.028 mg/L
binding result [2]: no binding
binding result [3]: no binding
Kd [9]: 9.7 nM
koff [9]: 0.0004 s⁻¹
kon [9]: 41200 M⁻¹ s⁻¹

B5: anti-LF clone LF9D (antibody, V domains shown)
VH: EVQLLESGGGLVKPGGSLRLSCAASGFTFSSYAMHWVRQTPEKGLEWVSTISSIGGSTWYSDSVKGRFTISRDNSKNTLFLHMKSLRAEDTAVYYCARDFFSQVGWSTPNNWFDPWGQGTLVTVS
VL: AAELTQSPSTLSASVGDRVTITCRASQGIATYLNWYQQIPGKAPKLLIYAASTLESGVPSRFSGSGSGAEFTLTISSLQPGDFATYYCQQFYSMPLTFGGGTKVEIKR
binding result [10]: binds
binding result [2]: no binding
binding result [3]: no binding

B6: anti-anthrax LF11H monoclonal antibody (IgG) (antibody, V domains shown)
VH: VQLLEQSGAEVKKPGESLKISCKGSGYSFTNYWIGWVRQMPGKGLEWMGIIYPDDSDTRYSPSFQGQVTISFDKSINTAYLQWSSLKASDTAIYYCARALWFRDWGKMDVWGKGTTVTVS
VL: ELQMTQSPSSLSASVGDRVTITCRASQGIRNDLGWYQQKPGKAPKLLIYAASSLQSGVPSRFSGSGSGTDFTLTISSLQPEDFATYYCLQDYTYPWTFGQGTKLEIKR
EC50 of neutralization of LT toxicity, RAW264.7 macrophage viability (MTT) [1]: 62.6 mg/L
binding result [2]: no binding
binding result [3]: no binding
binding result [4]: no binding
binding result [11]: no binding

B7: anti-anthrax LF11H Fab (Fab, V domains shown)
VH: B6 VH
VL: B6 VL
Kd [6]: 7.4 nM
koff [6]: 0.001 s⁻¹
kon [6]: 130000 M⁻¹ s⁻¹

B8: anti-EF clone EF14H (antibody, V domains shown)
VH: VQLLEESGGGLVKPGGSLRLSCAASGFTFSNYSMNWVRQAPGKGLEWVGFIRTKAKGGTTEYAASVKGRFTISRDDSKSIAYLQMNSLKTEDTAVYYCTPAGIIIRLVTPIYYYYMDVWGKGTTVTVS
VL: AAELTQSPSSLSASVGDRVTITCRASQGIRNYLAWYQQKPGKVPKLLIYAASTLQSGVPSRFSGSGSGTDFTLTISSLQPEDVATYYCQKYSSAPFTFGPGTKVGIKR
EC50 (read off the curve) [12]: ~0.05 mg/L
binding result [2]: no binding
binding result [3]: no binding
